Laboratory results taken from US20220306695A1, “COMPSTATIN ANALOGUES AND THEIR MEDICAL USES” (priority 2019, published 2022).
Starred links: 1 amine or outer side, 2 acyl side, 3 side chain; linkers in the order of their positions; H or OH if unused. Positions of bridges follow the written chain, without caps; N, C: chain ends. Non-standard residues stand in square brackets, D forms with d. Groups on a side chain read outwards from the residue. *: point of attachment. Trp(1-Me) = Cn1cc(C[C@H](N)C(=O)O)c2ccccc21; C18 diacid = O=C(O)CCCCCCCCCCCCCCCCC(=O)*; C16 diacid = O=C(O)CCCCCCCCCCCCCCC(=O)*; γGlu = O=C(O)[C@H](CCC(=O)[*:2])N[*:1]; AEEA = NCCOCCOCC(=O)O; Sar = CNCC(=O)O

B1: Compound 134 (peptide)
peptide: Ac-EFCI[Trp(1-Me)]QDWGEHRCEGEK([γGlu-Gly-γGlu-C18 diacid])-NH2
modifications: disulfide 3-13
SMILES: CC[C@H](C)[C@@H]1NC(=O)[C@@H](NC(=O)[C@H](Cc2ccccc2)NC(=O)[C@H](CCC(=O)O)NC(C)=O)CSSC[C@@H](C(=O)N[C@@H](CCC(=O)O)C(=O)NCC(=O)N[C@@H](CCC(=O)O)C(=O)N[C@@H](CCCCNC(=O)CC[C@H](NC(=O)CNC(=O)CC[C@H](NC(=O)CCCCCCCCCCCCCCCCC(=O)O)C(=O)O)C(=O)O)C(N)=O)NC(=O)[C@H](CCCNC(=N)N)NC(=O)[C@H](Cc2c[nH]cn2)NC(=O)[C@H](CCC(=O)O)NC(=O)CNC(=O)[C@H](Cc2c[nH]c3ccccc23)NC(=O)[C@H](CC(=O)O)NC(=O)[C@H](CCC(N)=O)NC(=O)[C@H](Cc2cn(C)c3ccccc23)NC1=O
B2: Compound 136 (peptide)
peptide: Ac-SEFCI[Trp(1-Me)]QDWGEHRCTEGE[8‑aminooctanoyl]K([γGlu-Gly-γGlu-C18 diacid])-NH2
modifications: disulfide 4-14
B3: Compound 114 (peptide)
peptide: Ac-SEYCI[Trp(1-Me)]QDWGEHRC[Sar]EGEK([γGlu-Gly-γGlu-C18 diacid])-NH2
modifications: disulfide 4-14
SMILES: CC[C@H](C)[C@@H]1NC(=O)[C@@H](NC(=O)[C@H](Cc2ccc(O)cc2)NC(=O)[C@H](CCC(=O)O)NC(=O)[C@H](CO)NC(C)=O)CSSC[C@@H](C(=O)N(C)CC(=O)N[C@@H](CCC(=O)O)C(=O)NCC(=O)N[C@@H](CCC(=O)O)C(=O)N[C@@H](CCCCNC(=O)CC[C@H](NC(=O)CNC(=O)CC[C@H](NC(=O)CCCCCCCCCCCCCCCCC(=O)O)C(=O)O)C(=O)O)C(N)=O)NC(=O)[C@H](CCCNC(=N)N)NC(=O)[C@H](Cc2c[nH]cn2)NC(=O)[C@H](CCC(=O)O)NC(=O)CNC(=O)[C@H](Cc2c[nH]c3ccccc23)NC(=O)[C@H](CC(=O)O)NC(=O)[C@H](CCC(N)=O)NC(=O)[C@H](Cc2cn(C)c3ccccc23)NC1=O
B4: Compound 137 (peptide)
peptide: Ac-SEFCI[Trp(1-Me)]QDWGEHRCTEGE[8‑aminooctanoyl]EK([γGlu-Gly-γGlu-C18 diacid])-NH2
modifications: disulfide 4-14
B5: Compound 115 (peptide)
peptide: Ac-SEYCI[Trp(1-Me)]QDWGEHRC[Sar]EGKK([γGlu-Gly-γGlu-C18 diacid])-NH2
modifications: disulfide 4-14
SMILES: CC[C@H](C)[C@@H]1NC(=O)[C@@H](NC(=O)[C@H](Cc2ccc(O)cc2)NC(=O)[C@H](CCC(=O)O)NC(=O)[C@H](CO)NC(C)=O)CSSC[C@@H](C(=O)N(C)CC(=O)N[C@@H](CCC(=O)O)C(=O)NCC(=O)N[C@@H](CCCCN)C(=O)N[C@@H](CCCCNC(=O)CC[C@H](NC(=O)CNC(=O)CC[C@H](NC(=O)CCCCCCCCCCCCCCCCC(=O)O)C(=O)O)C(=O)O)C(N)=O)NC(=O)[C@H](CCCNC(=N)N)NC(=O)[C@H](Cc2c[nH]cn2)NC(=O)[C@H](CCC(=O)O)NC(=O)CNC(=O)[C@H](Cc2c[nH]c3ccccc23)NC(=O)[C@H](CC(=O)O)NC(=O)[C@H](CCC(N)=O)NC(=O)[C@H](Cc2cn(C)c3ccccc23)NC1=O
B6: Compound 116 (peptide)
peptide: Ac-SEYCI[Trp(1-Me)]QDWGEHRC[Sar]EGEK([γGlu-Lys-γGlu-C18 diacid])-NH2
modifications: disulfide 4-14
B7: Compound 132 (peptide)
peptide: Ac-SEFCI[Trp(1-Me)]QDWGEHRC[Sar]EK[γGlu]GGGK([γGlu-Gly-γGlu-C18 diacid])-NH2
modifications: disulfide 4-14
SMILES: CC[C@H](C)[C@@H]1NC(=O)[C@@H](NC(=O)[C@H](Cc2ccccc2)NC(=O)[C@H](CCC(=O)O)NC(=O)[C@H](CO)NC(C)=O)CSSC[C@@H](C(=O)N(C)CC(=O)N[C@@H](CCC(=O)O)C(=O)N[C@@H](CCCCN)C(=O)N[C@@H](CCC(=O)NCC(=O)NCC(=O)NCC(=O)N[C@@H](CCCCNC(=O)CC[C@H](NC(=O)CNC(=O)CC[C@H](NC(=O)CCCCCCCCCCCCCCCCC(=O)O)C(=O)O)C(=O)O)C(N)=O)C(=O)O)NC(=O)[C@H](CCCNC(=N)N)NC(=O)[C@H](Cc2c[nH]cn2)NC(=O)[C@H](CCC(=O)O)NC(=O)CNC(=O)[C@H](Cc2c[nH]c3ccccc23)NC(=O)[C@H](CC(=O)O)NC(=O)[C@H](CCC(N)=O)NC(=O)[C@H](Cc2cn(C)c3ccccc23)NC1=O
B8: Compound 135 (peptide)
peptide: Ac-SEFCI[Trp(1-Me)]QDWGEHRCTGAESK([γGlu-Gly-γGlu-15‑carboxy‑hexadecanoyl])-NH2
modifications: disulfide 4-14
B9: Compound 133 (peptide)
peptide: Ac-SEFCI[Trp(1-Me)]QDWGEHRCTEK[γGlu]GGGK([γGlu-Gly-γGlu-C18 diacid])-NH2
modifications: disulfide 4-14
SMILES: CC[C@H](C)[C@@H]1NC(=O)[C@@H](NC(=O)[C@H](Cc2ccccc2)NC(=O)[C@H](CCC(=O)O)NC(=O)[C@H](CO)NC(C)=O)CSSC[C@@H](C(=O)N[C@H](C(=O)N[C@@H](CCC(=O)O)C(=O)N[C@@H](CCCCN)C(=O)N[C@@H](CCC(=O)NCC(=O)NCC(=O)NCC(=O)N[C@@H](CCCCNC(=O)CC[C@H](NC(=O)CNC(=O)CC[C@H](NC(=O)CCCCCCCCCCCCCCCCC(=O)O)C(=O)O)C(=O)O)C(N)=O)C(=O)O)[C@@H](C)O)NC(=O)[C@H](CCCNC(=N)N)NC(=O)[C@H](Cc2c[nH]cn2)NC(=O)[C@H](CCC(=O)O)NC(=O)CNC(=O)[C@H](Cc2c[nH]c3ccccc23)NC(=O)[C@H](CC(=O)O)NC(=O)[C@H](CCC(N)=O)NC(=O)[C@H](Cc2cn(C)c3ccccc23)NC1=O
B10: Compound 131 (peptide)
peptide: Ac-SEFCI[Trp(1-Me)]QDWGEHRCTEGEGGGK([γGlu-Gly-γGlu-C16 diacid])-NH2
modifications: disulfide 4-14
SMILES: CC[C@H](C)[C@@H]1NC(=O)[C@@H](NC(=O)[C@H](Cc2ccccc2)NC(=O)[C@H](CCC(=O)O)NC(=O)[C@H](CO)NC(C)=O)CSSC[C@@H](C(=O)N[C@H](C(=O)N[C@@H](CCC(=O)O)C(=O)NCC(=O)N[C@@H](CCC(=O)O)C(=O)NCC(=O)NCC(=O)NCC(=O)N[C@@H](CCCCNC(=O)CC[C@H](NC(=O)CNC(=O)CC[C@H](NC(=O)CCCCCCCCCCCCCCC(=O)O)C(=O)O)C(=O)O)C(N)=O)[C@@H](C)O)NC(=O)[C@H](CCCNC(=N)N)NC(=O)[C@H](Cc2c[nH]cn2)NC(=O)[C@H](CCC(=O)O)NC(=O)CNC(=O)[C@H](Cc2c[nH]c3ccccc23)NC(=O)[C@H](CC(=O)O)NC(=O)[C@H](CCC(N)=O)NC(=O)[C@H](Cc2cn(C)c3ccccc23)NC1=O
B11: Compound 113 (peptide)
peptide: Ac-ASGEYCI[Trp(1-Me)]QDWGEHRC[Sar]EGEK([γGlu-Gly-γGlu-C18 diacid])-NH2
modifications: disulfide 6-16
SMILES: CC[C@H](C)[C@@H]1NC(=O)[C@@H](NC(=O)[C@H](Cc2ccc(O)cc2)NC(=O)[C@H](CCC(=O)O)NC(=O)CNC(=O)[C@H](CO)NC(=O)[C@H](C)NC(C)=O)CSSC[C@@H](C(=O)N(C)CC(=O)N[C@@H](CCC(=O)O)C(=O)NCC(=O)N[C@@H](CCC(=O)O)C(=O)N[C@@H](CCCCNC(=O)CC[C@H](NC(=O)CNC(=O)CC[C@H](NC(=O)CCCCCCCCCCCCCCCCC(=O)O)C(=O)O)C(=O)O)C(N)=O)NC(=O)[C@H](CCCNC(=N)N)NC(=O)[C@H](Cc2c[nH]cn2)NC(=O)[C@H](CCC(=O)O)NC(=O)CNC(=O)[C@H](Cc2c[nH]c3ccccc23)NC(=O)[C@H](CC(=O)O)NC(=O)[C@H](CCC(N)=O)NC(=O)[C@H](Cc2cn(C)c3ccccc23)NC1=O
B12: Compound 112 (peptide)
peptide: Ac-SEYCI[Trp(1-Me)]QDWGEHRC[Sar]EGAK([γGlu-Gly-γGlu-C18 diacid])-NH2
modifications: disulfide 4-14
SMILES: CC[C@H](C)[C@@H]1NC(=O)[C@@H](NC(=O)[C@H](Cc2ccc(O)cc2)NC(=O)[C@H](CCC(=O)O)NC(=O)[C@H](CO)NC(C)=O)CSSC[C@@H](C(=O)N(C)CC(=O)N[C@@H](CCC(=O)O)C(=O)NCC(=O)N[C@@H](C)C(=O)N[C@@H](CCCCNC(=O)CC[C@H](NC(=O)CNC(=O)CC[C@H](NC(=O)CCCCCCCCCCCCCCCCC(=O)O)C(=O)O)C(=O)O)C(N)=O)NC(=O)[C@H](CCCNC(=N)N)NC(=O)[C@H](Cc2c[nH]cn2)NC(=O)[C@H](CCC(=O)O)NC(=O)CNC(=O)[C@H](Cc2c[nH]c3ccccc23)NC(=O)[C@H](CC(=O)O)NC(=O)[C@H](CCC(N)=O)NC(=O)[C@H](Cc2cn(C)c3ccccc23)NC1=O
B13: Compound 138 (peptide)
peptide: Ac-SEFCI[Trp(1-Me)]QDWGEHRC[Sar]EGE[AEEA]K([γGlu-Gly-γGlu-C18 diacid])-NH2
modifications: disulfide 4-14
B14: Compound 129 (peptide)
peptide: Ac-SEFCI[Trp(1-Me)]QDWGEHRC[Sar]EGEGGGK([γGlu-Gly-γGlu-C18 diacid])-NH2
modifications: disulfide 4-14
SMILES: CC[C@H](C)[C@@H]1NC(=O)[C@@H](NC(=O)[C@H](Cc2ccccc2)NC(=O)[C@H](CCC(=O)O)NC(=O)[C@H](CO)NC(C)=O)CSSC[C@@H](C(=O)N(C)CC(=O)N[C@@H](CCC(=O)O)C(=O)NCC(=O)N[C@@H](CCC(=O)O)C(=O)NCC(=O)NCC(=O)NCC(=O)N[C@@H](CCCCNC(=O)CC[C@H](NC(=O)CNC(=O)CC[C@H](NC(=O)CCCCCCCCCCCCCCCCC(=O)O)C(=O)O)C(=O)O)C(N)=O)NC(=O)[C@H](CCCNC(=N)N)NC(=O)[C@H](Cc2c[nH]cn2)NC(=O)[C@H](CCC(=O)O)NC(=O)CNC(=O)[C@H](Cc2c[nH]c3ccccc23)NC(=O)[C@H](CC(=O)O)NC(=O)[C@H](CCC(N)=O)NC(=O)[C@H](Cc2cn(C)c3ccccc23)NC1=O

The binders below were run against Human C3 (human, UniProt P01024 23-1663) (assay: cell-based or functional assay).
Chain of Human C3 (P01024 23-1663 limits assumed): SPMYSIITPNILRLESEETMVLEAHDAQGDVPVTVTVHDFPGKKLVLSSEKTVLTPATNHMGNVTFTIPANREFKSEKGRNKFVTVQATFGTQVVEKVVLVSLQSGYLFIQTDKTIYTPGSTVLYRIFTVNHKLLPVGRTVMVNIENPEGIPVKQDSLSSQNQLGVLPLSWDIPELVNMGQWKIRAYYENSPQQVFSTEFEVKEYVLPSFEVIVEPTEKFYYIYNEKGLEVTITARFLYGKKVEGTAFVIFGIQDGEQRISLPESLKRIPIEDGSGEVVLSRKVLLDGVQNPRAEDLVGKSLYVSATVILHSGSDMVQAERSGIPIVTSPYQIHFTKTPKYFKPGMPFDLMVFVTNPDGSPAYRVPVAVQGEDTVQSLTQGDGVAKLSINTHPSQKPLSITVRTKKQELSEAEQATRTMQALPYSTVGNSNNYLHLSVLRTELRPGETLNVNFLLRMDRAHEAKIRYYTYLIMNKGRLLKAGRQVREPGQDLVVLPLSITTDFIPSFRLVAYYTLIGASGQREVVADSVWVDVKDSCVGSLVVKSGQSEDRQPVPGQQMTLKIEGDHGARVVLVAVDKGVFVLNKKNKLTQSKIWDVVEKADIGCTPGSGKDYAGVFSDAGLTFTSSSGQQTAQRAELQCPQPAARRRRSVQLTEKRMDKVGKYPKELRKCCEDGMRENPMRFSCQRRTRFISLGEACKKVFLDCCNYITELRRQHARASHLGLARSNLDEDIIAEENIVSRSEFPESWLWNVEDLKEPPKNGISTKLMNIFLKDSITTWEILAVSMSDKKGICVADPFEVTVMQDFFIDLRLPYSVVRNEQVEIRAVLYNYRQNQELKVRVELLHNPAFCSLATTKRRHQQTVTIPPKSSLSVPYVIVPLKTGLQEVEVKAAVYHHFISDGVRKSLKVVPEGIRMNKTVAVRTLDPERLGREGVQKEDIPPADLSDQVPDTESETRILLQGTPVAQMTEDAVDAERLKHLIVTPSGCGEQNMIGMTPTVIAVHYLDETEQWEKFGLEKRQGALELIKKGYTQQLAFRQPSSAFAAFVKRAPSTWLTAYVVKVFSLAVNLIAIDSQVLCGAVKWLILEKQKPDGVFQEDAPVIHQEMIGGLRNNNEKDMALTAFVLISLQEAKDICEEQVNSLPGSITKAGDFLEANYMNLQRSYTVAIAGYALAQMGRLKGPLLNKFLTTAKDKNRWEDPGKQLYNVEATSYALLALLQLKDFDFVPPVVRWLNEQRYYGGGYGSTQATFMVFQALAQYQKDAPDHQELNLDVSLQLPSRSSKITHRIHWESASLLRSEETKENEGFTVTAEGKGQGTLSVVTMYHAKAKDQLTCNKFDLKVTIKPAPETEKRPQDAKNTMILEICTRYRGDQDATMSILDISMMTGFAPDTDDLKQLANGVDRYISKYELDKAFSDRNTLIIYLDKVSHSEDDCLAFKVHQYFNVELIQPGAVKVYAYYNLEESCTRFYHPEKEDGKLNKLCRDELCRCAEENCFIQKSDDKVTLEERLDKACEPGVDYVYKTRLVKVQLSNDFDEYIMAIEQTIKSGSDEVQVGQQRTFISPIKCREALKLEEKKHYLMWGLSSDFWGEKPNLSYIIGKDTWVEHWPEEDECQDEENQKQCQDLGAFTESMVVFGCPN
B1 was tested, and the IC50[nM], inhibition of hemolysis was less than 100 nM.
B2 showed an IC50[nM], inhibition of hemolysis of less than 100 nM.
In the case of B3, the IC50[nM], inhibition of hemolysis is reported as less than 500 nM.
B4 gave an IC50[nM], inhibition of hemolysis of less than 100 nM.
With B5 the IC50[nM], inhibition of hemolysis was less than 250 nM.
Binder B6 has an IC50[nM], inhibition of hemolysis of less than 500 nM.
With B7 the IC50[nM], inhibition of hemolysis was less than 100 nM.
B8 was tested, and the IC50[nM], inhibition of hemolysis was less than 100 nM.
Binder B9 has an IC50[nM], inhibition of hemolysis of less than 100 nM.
Binder B10 has an IC50[nM], inhibition of hemolysis of less than 100 nM.
B11 showed an IC50[nM], inhibition of hemolysis of less than 500 nM.
B12 gave an IC50[nM], inhibition of hemolysis of less than 500 nM.
With B13 the IC50[nM], inhibition of hemolysis was less than 100 nM.
B14 gave an IC50[nM], inhibition of hemolysis of less than 100 nM.
